{"source": "paper PMC10397247", "assay_in_all_cases": "two-hybrid library CCmax;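 also: natural log of median RNA to DNA barcode read ratio; higher means stronger binding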", "key": {"[1]": {"biological_target": "T1, 4H816-AA", "T1 chain": "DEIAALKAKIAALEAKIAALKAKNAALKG", "conditions": "mean of both orientations"}, "[2]": {"biological_target": "T2, 4H87-AA", "T2 chain": "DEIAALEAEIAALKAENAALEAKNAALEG", "conditions": "mean of both orientations"}, "[3]": {"biological_target": "T3, 4H775-AA", "T3 chain": "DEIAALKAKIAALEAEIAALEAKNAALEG"}, "[4]": {"biological_target": "T4, 4H2698-AA", "T4 chain": "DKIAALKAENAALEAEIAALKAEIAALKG"}, "[5]": {"biological_target": "T5, 4H3130-AA", "T5 chain": "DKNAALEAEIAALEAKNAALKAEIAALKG", "conditions": "mean of both orientations"}, "[6]": {"biological_target": "T6, 4H3410-AA", "T6 chain": "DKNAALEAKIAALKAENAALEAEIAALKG", "conditions": "mean of both orientations"}, "[7]": {"biological_target": "T7, 4H3009-AA", "T7 chain": "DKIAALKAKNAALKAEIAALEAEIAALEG", "conditions": "mean of both orientations"}, "[8]": {"biological_target": "T8, 4H3753-AA", "T8 chain": "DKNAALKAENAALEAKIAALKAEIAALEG", "conditions": "mean of both orientations"}, "[9]": {"biological_target": "T9, 4H3120-AA", "T9 chain": "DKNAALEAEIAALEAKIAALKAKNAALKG", "conditions": "mean of both orientations"}, "[10]": {"biological_target": "T10, 4H310-AA", "T10 chain": "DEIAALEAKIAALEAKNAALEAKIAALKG", "conditions": "mean of both orientations"}, "[11]": {"biological_target": "T11, 4H3697-AA", "T11 chain": "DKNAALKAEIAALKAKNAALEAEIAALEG", "conditions": "mean of both orientations"}, "[12]": {"biological_target": "T12, 4H536-AA", "T12 chain": "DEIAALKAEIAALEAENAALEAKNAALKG", "conditions": "mean of both orientations"}, "[13]": {"biological_target": "T13, 4H797-AA", "T13 chain": "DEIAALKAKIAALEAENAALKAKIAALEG", "conditions": "mean of both orientations"}, "[14]": {"biological_target": "T14, 4H3590-AA", "T14 chain": "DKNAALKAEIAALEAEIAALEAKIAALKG", "conditions": "mean of both orientations"}, "[15]": {"biological_target": "T15, 4H3381-AA", "T15 chain": "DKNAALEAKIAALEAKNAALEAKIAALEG", "conditions": "mean of both orientations"}, "[16]": {"biological_target": "T16, 4H745-AA", "T16 chain": "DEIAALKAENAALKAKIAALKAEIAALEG", "conditions": "mean of both orientations"}, "[17]": {"biological_target": "T17, 4H2865-AA", "T17 chain": "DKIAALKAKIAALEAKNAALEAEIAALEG", "conditions": "mean of both orientations"}, "[18]": {"biological_target": "T18, 4H930-AA", "T18 chain": "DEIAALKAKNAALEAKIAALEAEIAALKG", "conditions": "mean of both orientations"}, "[19]": {"biological_target": "T19, 4H3395-AA", "T19 chain": "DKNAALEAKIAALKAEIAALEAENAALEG", "conditions": "mean of both orientations"}, "[20]": {"biological_target": "T20, 4H629-AA", "T20 chain": "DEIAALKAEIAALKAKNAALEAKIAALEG", "conditions": "mean of both orientations"}, "[21]": {"biological_target": "T21, 4H3865-AA", "T21 chain": "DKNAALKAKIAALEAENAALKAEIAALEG", "conditions": "mean of both orientations"}, "[22]": {"biological_target": "T22, 4H891-AA", "T22 chain": "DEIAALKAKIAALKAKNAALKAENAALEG", "conditions": "mean of both orientations"}, "[23]": {"biological_target": "T23, 4H850-AA", "T23 chain": "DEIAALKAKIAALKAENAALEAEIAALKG", "conditions": "mean of both orientations"}, "[24]": {"biological_target": "T24, 4H3165-AA", "T24 chain": "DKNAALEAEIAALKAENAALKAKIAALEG", "conditions": "mean of both orientations"}, "[25]": {"biological_target": "T25, 4H710-AA", "T25 chain": "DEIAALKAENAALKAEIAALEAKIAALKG", "conditions": "mean of both orientations"}, "[26]": {"biological_target": "T26, 4H485-AA", "T26 chain": "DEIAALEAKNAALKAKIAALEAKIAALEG", "conditions": "mean of both orientations"}, "[27]": {"biological_target": "T27, 4H570-AA", "T27 chain": "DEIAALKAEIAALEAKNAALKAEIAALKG", "conditions": "mean of both orientations"}, "[28]": {"biological_target": "T28, 4H909-AA", "T28 chain": "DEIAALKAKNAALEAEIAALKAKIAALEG", "conditions": "mean of both orientations"}, "[29]": {"biological_target": "T29, 4H94-AA", "T29 chain": "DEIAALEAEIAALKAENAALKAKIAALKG", "conditions": "mean of both orientations"}, "[30]": {"biological_target": "T30, 4H3016-AA", "T30 chain": "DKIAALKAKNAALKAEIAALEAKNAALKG", "conditions": "mean of both orientations"}, "[31]": {"biological_target": "T31, 4H458-AA", "T31 chain": "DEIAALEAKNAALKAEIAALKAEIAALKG", "conditions": "mean of both orientations"}, "[32]": {"biological_target": "T32, 4H2725-AA", "T32 chain": "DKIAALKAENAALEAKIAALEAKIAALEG", "conditions": "mean of both orientations"}}}
{"binder": "DEIAALKAKIAALEAEIAALEAKNAALEG", "note": "[4H775-AA]", "values": [{"measurement": "interaction score", "setting": "[1]", "value": 1.66}, {"measurement": "interaction score", "setting": "[2]", "value": -1.7}, {"measurement": "interaction score", "setting": "[3]", "value": 1.62}]}
{"binder": "DKIAALKAENAALEAEIAALKAEIAALKG", "note": "[4H2698-AA]", "values": [{"measurement": "interaction score", "setting": "[4]", "value": 2.27}, {"measurement": "interaction score", "setting": "[5]", "value": 1.19}, {"measurement": "interaction score", "setting": "[6]", "value": -1.56}, {"measurement": "interaction score", "setting": "[7]", "value": 2.02}, {"measurement": "interaction score", "setting": "[8]", "value": -1}, {"measurement": "interaction score", "setting": "[9]", "value": -1.3}, {"measurement": "interaction score", "setting": "[10]", "value": -0.185}, {"measurement": "interaction score", "setting": "[11]", "value": -1.12}, {"measurement": "interaction score", "setting": "[12]", "value": -1.49}, {"measurement": "interaction score", "setting": "[13]", "value": -1.25}, {"measurement": "interaction score", "setting": "[14]", "value": -0.95}, {"measurement": "interaction score", "setting": "[15]", "value": -0.904}, {"measurement": "interaction score", "setting": "[16]", "value": 2.2}, {"measurement": "interaction score", "setting": "[17]", "value": 0.889}, {"measurement": "interaction score", "setting": "[18]", "value": -0.113}, {"measurement": "interaction score", "setting": "[19]", "value": -1.65}, {"measurement": "interaction score", "setting": "[20]", "value": -1.54}, {"measurement": "interaction score", "setting": "[21]", "value": -1.07}, {"measurement": "interaction score", "setting": "[22]", "value": -1.59}, {"measurement": "interaction score", "setting": "[23]", "value": -0.992}, {"measurement": "interaction score", "setting": "[24]", "value": -1.39}, {"measurement": "interaction score", "setting": "[25]", "value": 1.79}, {"measurement": "interaction score", "setting": "[26]", "value": 1.49}, {"measurement": "interaction score", "setting": "[27]", "value": 0.35}, {"measurement": "interaction score", "setting": "[28]", "value": -0.0319}, {"measurement": "interaction score", "setting": "[29]", "value": -0.915}, {"measurement": "interaction score", "setting": "[30]", "value": 0.539}, {"measurement": "interaction score", "setting": "[31]", "value": 2.26}, {"measurement": "interaction score", "setting": "[32]", "value": -1.02}]}
